Laboratory results from US20200223889A1 (Novo Nordisk, published 2020).
Positions of bridges follow the written chain, without caps; N, C: chain ends. Non-standard residues stand in square brackets, D forms with d. Cit = NC(=O)NCCC[C@H](N)C(=O)O; Api = NC1(C(=O)O)CCNCC1

Key:
[1] = molecular target: T1, human melanocortin 4 receptor (human, UniProt P32245 1-332); assay: cell-based or functional assay
[2] = molecular target: human melanocortin 1 receptor (human, UniProt Q01726 1-317); assay: cell-based or functional assay
[3] = molecular target: T1, human melanocortin 4 receptor; assay: competition with 125-NDP-α-MSH, BHK human MC4R membranes
Outline: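 Competition binding used membranes from BHK cells stably expressing human MC4R with ¹²⁵I-NDP-α-MSH (apx. […] final), compound at 1 μM–0.001 nM. Incubation was 2 h at 25 °C in HEPES pH 7.0 buffer with CaCl₂, MgSO₄, EGTA, Tween 20 and 0.1% HSA or ovalbumin. Filter-bound radioactivity was fitted by non-linear regression.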

human melanocortin 1 receptor, sequence (Q01726 whole entry): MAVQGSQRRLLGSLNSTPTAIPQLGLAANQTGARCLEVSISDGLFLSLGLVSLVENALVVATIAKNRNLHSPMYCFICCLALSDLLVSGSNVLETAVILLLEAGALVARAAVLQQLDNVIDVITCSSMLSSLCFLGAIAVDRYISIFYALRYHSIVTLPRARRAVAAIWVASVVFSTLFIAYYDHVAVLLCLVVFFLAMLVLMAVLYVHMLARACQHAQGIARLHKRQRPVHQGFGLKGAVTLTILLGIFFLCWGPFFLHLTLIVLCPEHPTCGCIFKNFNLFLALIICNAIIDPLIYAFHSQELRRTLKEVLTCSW
T1 sequence (P32245 whole entry): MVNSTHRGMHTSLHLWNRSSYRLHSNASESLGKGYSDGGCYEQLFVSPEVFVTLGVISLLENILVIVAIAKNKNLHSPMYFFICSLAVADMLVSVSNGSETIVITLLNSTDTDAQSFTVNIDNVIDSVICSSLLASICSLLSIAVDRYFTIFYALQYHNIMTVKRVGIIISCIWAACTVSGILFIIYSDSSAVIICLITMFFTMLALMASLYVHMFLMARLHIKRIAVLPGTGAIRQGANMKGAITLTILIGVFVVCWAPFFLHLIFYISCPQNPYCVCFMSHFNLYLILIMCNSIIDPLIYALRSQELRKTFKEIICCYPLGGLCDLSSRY

B1: Chem. 49 (peptide)
peptide: cyclo(CH[dF]RWCH[dF]RW)
modifications: disulfide 1-6
SMILES: N=C(N)NCCC[C@@H]1NC(=O)[C@@H](Cc2ccccc2)NC(=O)[C@H](Cc2c[nH]cn2)NC(=O)[C@@H]2CSSC[C@H](NC(=O)[C@H](Cc3c[nH]c4ccccc34)NC1=O)C(=O)N[C@@H](Cc1c[nH]cn1)C(=O)N[C@H](Cc1ccccc1)C(=O)N[C@@H](CCCNC(=N)N)C(=O)N[C@@H](Cc1c[nH]c3ccccc13)C(=O)N2
notes: also called c[c[Cys-His-D-Phe-Arg-Trp-Cys]-His-D-Phe-Arg-Trp]
[1]
  MC4R cAMP EC50: 1.28 nM
[2]
  MC1R cAMP EC50: > 5.5 nM
[3]
  Ki: 3.92 nM

B2: Chem. 48 (peptide)
peptide: cyclo(CAH[dF][Cit]WCAKKKW)
modifications: disulfide 1-7
SMILES: C[C@@H]1NC(=O)[C@@H]2CSSC[C@H](NC(=O)[C@H](Cc3c[nH]c4ccccc34)NC(=O)[C@H](CCCNC(N)=O)NC(=O)[C@@H](Cc3ccccc3)NC(=O)[C@H](Cc3c[nH]cn3)NC1=O)C(=O)N[C@@H](C)C(=O)N[C@@H](CCCCN)C(=O)N[C@@H](CCCCN)C(=O)N[C@@H](CCCCN)C(=O)N[C@@H](Cc1c[nH]c3ccccc13)C(=O)N2
notes: also called c[c[Cys-Ala-His-D-Phe-Cit-Trp-Cys]-Ala-Lys-Lys-Lys-Trp]
[1]
  MC4R cAMP EC50: 0.06 nM
[2]
  MC1R cAMP EC50: 9.14 nM
[3]
  Ki: 0.15 nM

B3: Chem. 45 (peptide)
peptide: cyclo(CAH[dF][Cit]WCAEEEW)
modifications: disulfide 1-7
SMILES: C[C@@H]1NC(=O)[C@@H]2CSSC[C@H](NC(=O)[C@H](Cc3c[nH]c4ccccc34)NC(=O)[C@H](CCCNC(N)=O)NC(=O)[C@@H](Cc3ccccc3)NC(=O)[C@H](Cc3c[nH]cn3)NC1=O)C(=O)N[C@@H](C)C(=O)N[C@@H](CCC(=O)O)C(=O)N[C@@H](CCC(=O)O)C(=O)N[C@@H](CCC(=O)O)C(=O)N[C@@H](Cc1c[nH]c3ccccc13)C(=O)N2
notes: also called c[c[Cys-Ala-His-D-Phe-Cit-Trp-Cys]-Ala-Glu-Glu-Glu-Trp]
[1]
  MC4R cAMP EC50: 45.7 nM
[2]
  MC1R cAMP EC50: > 100 nM
[3]
  Ki: 1000 nM

B4: Chem. 42 (peptide)
peptide: CAHFXWCAHFXW
modifications: D-Phe 4, 10; AGP 5, 11; disulphide Cys1-Cys7; head-to-tail amide Cys1-Trp12
notes: also called c[c[Cys-Ala-His-D-Phe-AGP-Trp-Cys]-Ala-His-D-Phe-AGP-Trp]
[1]
  MC4R cAMP EC50: > 1000 nM
[2]
  MC1R cAMP EC50: > 100 nM
[3]
  Ki: 10000 nM

B5: Chem. 47 (peptide)
peptide: cyclo(C[Api]H[dF]RWC[Api]H[dF]RW)
modifications: disulfide 1-7
SMILES: N=C(N)NCCC[C@@H]1NC(=O)[C@@H](Cc2ccccc2)NC(=O)[C@H](Cc2c[nH]cn2)NC(=O)C2(CCNCC2)NC(=O)[C@@H]2CSSC[C@H](NC(=O)[C@H](Cc3c[nH]c4ccccc34)NC1=O)C(=O)NC1(CCNCC1)C(=O)N[C@@H](Cc1c[nH]cn1)C(=O)N[C@H](Cc1ccccc1)C(=O)N[C@@H](CCCNC(=N)N)C(=O)N[C@@H](Cc1c[nH]c3ccccc13)C(=O)N2
notes: also called c[c[Cys-ACP-His-D-Phe-Arg-Trp-Cys]-ACP-His-D-Phe-Arg-Trp]
[1]
  MC4R cAMP EC50: 0.12 nM
[2]
  MC1R cAMP EC50: 2.79 nM
[3]
  Ki: 0.72 nM
